Columns and labels:
She2p (wild type) [1] = target: T1, She2p (wild type) (Saccharomyces cerevisiae, UniProt P36068 1-246); test: SEC; analytical; She2p, His-She3p C-terminal fragment and RNA (ternary complex formation, Figure 4E); which RNA is not told in the legend; conditions: both partners purified
T1 construct: She2p, Saccharomyces cerevisiae, Gene ID 853728; also called She2p (wt); wild-type She2p

She2p (wild type) [2] = target: T1, She2p (wild type); test: pull-down; His-tagged She3p (full length, point mutants, or MBP-She3p fragment-His) on nickel sepharose, no RNA; 7.5–10 µM of each protein, HNMD-buffer (20 mM HEPES pH 7.8, 200 mM NaCl, 2 mM MgCl2, 2 mM DTT) with 30–50 mM imidazole, 30–60 min at 4°C; SDS-PAGE, Coomassie; conditions: both partners purified

T1 sequence (P36068 whole entry, the tested form may be a part): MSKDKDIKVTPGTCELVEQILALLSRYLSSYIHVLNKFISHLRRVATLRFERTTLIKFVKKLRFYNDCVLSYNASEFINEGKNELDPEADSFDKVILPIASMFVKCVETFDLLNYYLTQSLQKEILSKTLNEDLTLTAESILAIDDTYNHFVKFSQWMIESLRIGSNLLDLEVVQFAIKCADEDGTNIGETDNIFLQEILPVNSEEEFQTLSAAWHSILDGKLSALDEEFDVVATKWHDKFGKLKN

Row | binding result (She2p (wild type) [1]) | binding result (She2p (wild type) [2]) | Binder
1 | binds | – | His-She3p (334–425) (domain or fragment, Saccharomyces cerevisiae, it precedes G334 at the N-terminus of the construct) GPLGSMGNSSNNKRRSFYTASPLLSSGSIPKSASPVLPGVKRTASVRKPSSSSSKTNVTHNNDPSTSPTISVPPGVTRTVSSTHKKKGNSMVVHGAQS
2 | – | binds | MBP-She3p(354–425)-His (domain or fragment, Saccharomyces cerevisiae, UniProt P38272 354-425, looked up) GSIPKSASPVLPGVKRTASVRKPSSSSSKTNVTHNNDPSTSPTISVPPGVTRTVSSTHKKKGNSMVVHGAQS
3 | – | binds | MBP-She3p(334–425)-His (domain or fragment, Saccharomyces cerevisiae, UniProt P38272 334-425, looked up) GNSSNNKRRSFYTASPLLSSGSIPKSASPVLPGVKRTASVRKPSSSSSKTNVTHNNDPSTSPTISVPPGVTRTVSSTHKKKGNSMVVHGAQS

From publication PMC3079584, “A Cytoplasmic Complex Mediates Specific mRNA Recognition and Localization in Yeast” (PLoS Biology, 2011)
